Source: PMC9652331, “Cryo-EM structures of human m^6A writer complexes” (Cell Research, 2022)

Target: the molecule itself
Assay: cross-linking; BS3 XL-MS of purified MACOM (Fig. S4a, b): 0.5 mM BS3, 50 mM HEPES pH 7.5, 100 mM KCl, 5% glycerol, 25 °C, 2 h; pLink2

B1: Wilms' tumor 1-associated protein (WTAP), full length, N-6× His-WTAP (natural protein, human, UniProt Q15007 1-396, looked up)
chain: MTNEEPLPKKVRLSETDFKVMARDELILRWKQYEAYVQALEGKYTDLNSNDVTGLRESEEKLKQQQQESARRENILVMRLATKEQEMQECTTQIQYLKQVQQPSVAQLRSTMVDPAINLFFLKMKGELEQTKDKLEQAQNELSAWKFTPDSQTGKKLMAKCRMLIQENQELGRQLSQGRIAQLEAELALQKKYSEELKSSQDELNDFIIQLDEEVEGMQSTILVLQQQLKETRQQLAQYQQQQSQASAPSTSRTTASEPVEQSEATSKDCSRLTNGPSNGSSSRQRTSGSGFHREGNTTEDDFPSSPGNGNKSSNSSEERTGRGGSGYVNQLSAGYESVDSPTGSENSLTHQSNDTDSSHDPQEEKAVSGKGNRTVGSRHVQNGLDSSVNVQGSVL
notes: Wilms' tumor 1-associated protein (WTAP), human, full length; Stands as a homodimer in the MACOM complexes (two copies, WTAP-a and WTAP-b); No removal of the His tag is described; also called WTAP-a; WTAP-b; source: High Five insect cells, co-expressed with the other MACOM components, purified as a complex (Ni-NTA, STREP beads, SEC); not shown: 6× His, N-terminal, kept
Does B1 bind?
Result: binds
